Experimental data taken from the DeepSol protein solubility set.

Assay: soluble on expression in E. coli; label from the status in PepcDB or PDB records

Row | Sequence | soluble on expression in E. coli
1 | MFGYRSNVPKVRLTTDRLVVRLVHDRDAWRLADYYAENRHFLKPWEPVRDESHCYPSGWQARLGMINEFHKQGSAFYFGLFDPDEKEIIGVANFSNVVRGSFHACYLGYSIGQKWQGKGLMFEALTAAIRYMQRTQHIHRIMANYMPHNKRSGDLLARLGFEKEGYAKDYLLIDGQWRDHVLTALTTPDWTPGR | not soluble
2 | MFISCIILINYSYIFGKNIRYLYEFKVIWKSNNSLILFFIEFDRNFMTIKFKLFKCRRLNILIELINIENYFRNGNILCFIFNIPSIPRNLLINVFLTSSNKVNISIQGLKLEHHHHHH | not soluble
3 | MFKPELLSPAGTLKNMRYAFAYGADAVYAGQPRYSLRVRNNEFNHENLQLGINEAHALGKKFYVVVNIAPHNAKLKTFIRDLKPVVEMGPDALIMSDPGLIMLVREHFPEMPIHLSVQANAVNWATVKFWQQMGLTRVILSRELSLEEIEEIRNQVPDMEIEIFVHGALCMAYSGRCLLSGYINKRDPNQGTCTNACRWEYNVQEGKEDDVGNIVHKYEPIPVQNVEPTLGIGAPTDKVFMIEEAQRPGEYMTAFEDEHGTYIMNSKDLRAIAHVERLTKMGVHSLKIEGRTKSFYYCARTAQVYRKAIDDAAAGKPFDTSLLETLEGLAHRGYTEGFLRRHTHDDYQNYEYGYSVSDRQQFVGEFTGERKGDLAAVAVKNKFSVGDSLELMTPQGNINFTLEHMENAKGEAMPIAPGDGYTVWLPVPQDLELNYALLMRNFSGETTRNPHGK | soluble
4 | MFKRLMMVALLVIAPLSAATAADQTNPYKLMDEAAQKTFDRLKNEQPQIRANPDYLRTIVDQELLPYVQVKYAGALVLGQYYKSATPAQRDAYFAAFREYLKQAYGQALAMYHGQTYQIAPEQPLGDKTIVPIRVTIIDPNGRPPVRLDFQWRKNSQTGNWQAYDMIAEGVSMITTKQNEWGTLLRTKGIDGLTAQLKSISQQKITLEEKK | not soluble
5 | MFMIEVEIFPHRYLKASTTEKFLNKIYDLKTVERVVIHGQPLPKVITYGPARGLPVNHTERKIIHVKGVPVELTVMAGRFWITLSDDSELDKLDEICKEMFPFGYNLRVGKFLKDRPTVTDYIKYGEDGVFLINEMDRRLIGMVDPRSRMANSVTVVEKEEKEELEHHHHHH | soluble
6 | MFNGEKVTLLEMLDAREQRAATQKELLETAPEASLLSATMNIPGEVKNSPTLTAVFLEVIDEVEQQLLDQVPIVNFYRNEKTGPEYYLAVSLAPQELKQRMVKIEETHPYGRLVDLDVLWGNEELKSLHRGDLGLPPRRCFICQEVAKVCGRNRRHSLEAMQEKITEIILTRKEQPSE | not soluble
7 | MFNKAIVIGGSMAGKFAAKALSTSFKEVIIIEASERWDGKSSRKRVPQSNHPHVLLKGGENAIEELFPNITDELIEAGSIVNNFTRDLKWHQFGLWKQPFIGEVHMIQQSRPLLEWNIQKRIHQISNITIKYETLVKGLLVDEKLNKVCGVKVKYLETDAQEEVHADLVVDASGFGSKSIEWLREYEIEVQEEKVRINLFYATKMFKLKENEELDCCNMLMSPSFPDNPYGVLIQTIEDNRYFVTFSGYANEKAPQTDDEFYDFAENLSISNVTDFLNKAVAISDIKTYKIPYQVRRRFDLTTNMPEGLLVVGDAHCRFDPVFGQGVSVAAMEARQLQLLLQGRKQLDKTFTQQFYKKAATIIETPWEMTTTEISRHPQLKRELTIKQKFQLWYTKQIYQLSATDSDVYIRLVKVMNLIRSPFHLFHPKVLLAVLLKRKKLEHHHHHH | not soluble
8 | MFNYSTKDANLSNKTILVTGAGAGIGRTAALTYAQLGATVILLGKTVSKLEAVYDEIVALGLAEPAIIPLDLKGATKQNYIDMSSTISSQFGHLDGVLLNASILGELTPFTQMHEQVFNDVMKVNVTAQCLLAQTLIPTLLLAPNASLVFTSSGVGSQGRAYWGQYSISKFATEGMMQVIADEYEGSNLRTNAINPGATNTNMRSCAFPAEDKDELATPEDIMPLYVYLMSDDSLEINGQTLKAQ | not soluble
9 | MFPEILNNEKLRLENIKKIYESSKSGYESAKQLYEQQVNNPEVSDEQKSENLEKLKESRGDLDNLQKKIVELQAKIENLSKLGGQQGNPFKKLF | not soluble
10 | MFPIASRRILLNASVLPLRLCNRNFTTTRISYNVIQDLYLRELKDTKLAPSTLQDAEGNVKPWNPPQKPNLPELELQGPEALKAYTEQNVETAHVAKESEEGESEPIEEDWLVLDDAEETKESH | not soluble
11 | MFQVQKELASHEAVVVALFEEEKTSSFVQELDKAFEGQLQVLLEEKELSTKKKAISKVHSLGKTDVKRYYFVGLGKKESYTTETLRSALGKTFKTLQAAKVQDAAILLDSFVTEKLDAIDVAHIAAEVQGLGTYELQTYKSDKKDRVELEKFTAITAEDAQEIEAALTVGYVHGRATNSARTLVNMPPNVLTATKLAEYAVELAEKYDMDYKVLEKEEMEELGMGALLAVNQGSVEPPKMIALIYKGKEEWTDVIGFVGKGITYDTGGYSLKPREGMVGMKGDMGGAAAVLGAMEIIGELRPEQNVIAVIPSTDNVVSGTAFKPDDVITSMSGKTIEVLNTDAEGRLALADGITYAKKLGANYLIDVATLTGGVIVALGNHTTGAMTNNEELFEQVLEASMETDESIWQLPIFDRDKERVRNSKFADLNNSPGREGHAVMAGTFIGEFAEDTPWVHLDIAGTSESSGAHDLGPAGATGAMVRTLATLVERFGEE | not soluble
12 | MFRNAAELVAQAKEQNVKIAEIMIQCEMETRSISREEVIAGMEKNLVVMEQAVERGIRGVKSPTGLTGGDAVKVQAYMKSGKGLSGDTILDAVSKAVATNEVNAAMGIICATPTAGSAGTVPGVLFALREKLQPTREEMIEFLFTAGAFGMVVANNACISGAAGGCQAEVGSASGMAAAAAVEMAGGTQEQAATAMAISLKNMLGLVCDPVAGLVEVPCVKRNAAGAANAMISADLALAGVTSTIPCDEVIEAMFRIGQTMPVALRETAEGGLAATPTGRRLQEEIFGKTNN | not soluble
13 | MFRRIPLGRFLTRKIHNQTNGLIVPTTNVQKQQKRQILFKMGNETPARVVGYYVVFPVIPEETVENNCFMYNIAKNEDWPKLATAEPRELYEGTVRMLMDYGATVMEHMEHLATLPAEERKFENVVEPLLTEEYEVNFAFQTLVLKMLTDWPDCNRKLFDADLHHIKIMCARDQMEKLTNKDFQDAIKQLYEAKDGLSEWQSRLLEWYLLEIKASGLDKHDDKTRKVLGSWSKFVDEYRSKYITGVMSTNDQQTFVVTDQKVIKDAPPHVLQKLAVDEQNWESGPWRGRMTPHTIYPFMQYCGDRQLRATAWEKWTSKAGFDHDFYNNSINIEELRHNNEGLAKTLGYSSVAEHRLANKMAASPETVRGFINALQRRIRPVVIDRMESWSAWAGRCELITGELQAYDMPYVCRKEAEHHYEFFFQLKSSNFSFFRVNPLDLMNHFPFWPTFQNIMGVIGHIFNLEFKDITDKGLEKAHADVRIYSVGDKFSGQHYGRLYIDPYDRQNKRGGWNVMLARPESKERGLDKIVYFIGSAIAPTSNGPSLLHHQQLQQLLFHFGRSVQLLLSQSPYRDISIPWSPFYASDWDAADMFPTFLQMFVTKPNLLATISSPHQITKQSLTEEHANSVALTISRASLWETYRTLFWSDFDLSIYEMEDRKQKFWLDMYKQMYEEYFPFKRAKNDYQPCSFTPIFALQPHMSMYYRKLWAEMLALDIHETFDEEDNEVQTGERLKTTILNRGSGDVAKELFKRFQGRNPSVGAICDHYAPPMAIQDEMEMSENQRR | not soluble
14 | MFRSVVVSVRQPAVAGYFYPDDPLTLKQTVLNFLDQAPIHKPAPKAILVPHAGYVYSGAVAASAYASLRDKKDTINKIILLGPAHRLYFKGIAYDPVDKFATPLGEIDQDKELLTQIIDLPYVYSLPEAHQNEHCLEVQLPFCQMIFSKFKILPLVIGETNPQDVARLIARIWGGDDTLLIISSDLSHYLPYHIAQREDKKTCLSIDTLNGEEILHDAACGYFPLRGFLYFGRQNHVYSRLLDLRNSGDTAGDKERVVGYAAYHFYQKLKFSEHCADELKYIAKETIRLQTEENKALTINYNDYSQLLQMRVPTFITLKKNGMLRGCMGSLTTKDPLAENIIYNSIRAASADPRFPQIKPCELKELSLTISLIKPLSPLHFDSEEELKSQLQIGLDGLVLICGPYQATFLPSVWESVKTKDEFINHLKLKMGLSENFWSSEMRALRYATEIIKLEHHHHHH | not soluble
15 | MFRWLFQSEGVTRSFDTPSETQSARDDRKTIGDYADNFLLFDLVMGEVEMAVIRFEIEKEEKEEAERKAERRPDYSWLISGNMNRARKQLSINEKNRIENACERLKPCEWSKTIDTWKIKTQNPSTRDQIIENFVIATHETIQSRKHEPTITEVLKNFATGRSGSLHTVSHGELPRVGSGRNISELSFIELQEMV | not soluble
16 | MFSAPLENTMLCNMGGSHEKARARENERMRERERGKEQRTYFATGSLARCQAGSVRRAPGTRRHPGSSTVQGFGTVVSLEANKEMKKEETFFFASLFLYRLGGPLTGTVGYANKTTGR | not soluble
17 | MFTAKCAMQNIRNVAIVGSGQMGSGIAQVTASSGFNVMLADVNKKALDRAMKAISQSVTHLSKKQKGTDKEKSDFVTLTMSRIKTCNNVSTAVADADLIIEAAIENIDLKRGIFAQIEQSCKKDSILTTNTSSFLLEDVAKGLQDKTRFGGLHFFNPVPVMKLLEVIRSDDTSDETYATLIKFGTAVGKTTVACKDSPGFIVNRLLIPYFFEAARMYERGDASMTDIDEAMKLGAGHPMGPFELADYIGLDTVKFVMDGWAAKYPEVQLFEASPLVDKLVAEGKLGRKTGDGFYSYKK | not soluble
18 | MFTGSIVALVTPMDEKGNVSRSCLKKLIDYHVANGTSAIVSVGTTGESATLSHDEHGDVVMMTLELADGRIPVIAGTGANATAEAISLTQRFNDSGIVGCLTVTPYYNRPTQEGLFQHFKAIAEHTDLPQILYNVPSRTGCDMLPETVGRLAEIKNIIAIKEATGNLTRVHQIKELVSDDFILLSGDDASALDFMQLGGHGVISVTANVAAREMADMCKLAAEGQFAEARAINQRLMPLHNKLFVEPNPIPVKWACKALGLVATDTLRLPMTPITDHGRDIVKAALQHAGLL | not soluble
19 | MFTIKTDDLTHPAVQALVAYHISGMLQQSPPESSHALDVQKLRNPTVTFWSVWEGEQLAGIGALKLLDDKHGELKSMRTAPNYLRRGVASLILRHILQVAQDRCLHRLSLETGTQAGFTACHQLYLKHGFADCEPFADYRLDPHSRFLSLTLCENNELP | soluble
20 | MFVELNNLLNTTPDRAEQGKLTLLCDAKTDGSFLVHHFLSFYLKANCKVCFVALIQSFSHYSIVGQKLGVSLTMARERGQLVFLEGLKSAVDVVFQAQKEPHPLQFLREANAGNLKPLFEFVREALKPVDSGEARWTYPVLLVDDLSVLLSLGMGAVAVLDFIHYCRATVCWELKGNMVVLVHDSGDAEDEENDILLNGLSHQSHLILRAEGLATGFCRDVHGQLRILWRRPSQPAVHRDQSFTYQYKIQDKSVSFFCQRNVSCCSVT | soluble
21 | MFYDGYAYHGTTFEQTYRCYPSSFIDKPQIESGDKIIMPPSALDRLASLQIDYPMLFELRNASTDSFSHCGVLEFIAEEGVIYIPYWMMQNLLLQEGDMVRVRNVTLPKGTYVKLQPHTTDFLDIANPKAILETALRNYSCLTVGDSIMVPYNNKKYFIDIVEAKPSNGISIIETDCEVDFAPPLDYKEPERPVAPAPAKGEAKAKEVDVAEAEPKFNPFTGSGRRLDGRPLSYEPQPGAANSNGQSHPVASSSSSGSEKATQQNRGKLVFGSNVERSTKETTKVGAGKDRKQEEEAEKEAKFQAFSGKKYSLRG | soluble
22 | MGADGGTIPKRCELVKERKKKEKLDKHVKNATKWRNCQLTQLPLKRPVIACRFGKLYNKEDVINSILSKTISKSASASHIKGPKDFVELKLTLNKDFKRGDVKGDDYNDVNQTEFICPITNVPMNGIQSFLVNWQCGCVYSEKAQQEVKSSNCHVCGGPYDATKMVILNPEPEQLELYKLKWEAEKAEKAAAKKDKAKKTAEKMEAAASLAAGSGGEASSVAPGPSGSGVGKHVDLKKKLEIAKLTGGSTSEKKAEKRKANTDIQSDPTTSDTYKKLFTTCEAAKNKTEGHWVTYNPLYY | soluble
